Data set [1] has as its target T1, recombinant human S100A9 (human, UniProt P06702 1-114).
T1 construct: S100A9, human, recombinant; No oligomer size was measured here; also called S100A9 homodimer; source: produced in E. coli at Active Biotech
T1 sequence (looked up): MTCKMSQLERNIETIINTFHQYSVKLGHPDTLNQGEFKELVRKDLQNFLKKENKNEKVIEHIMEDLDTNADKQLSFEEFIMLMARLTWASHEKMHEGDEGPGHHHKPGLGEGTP
Description: SPR; S100A1, A4, A7, A9 and A13 (~1.3 µg/mL) injected (2 min at 30 µL/min) over immobilised S100A4 and S100A9 (~2.5 kRU); 1 mM Ca++ and 20 µM Zn++; responses at late association phase. The conditions noted are these: both partners purified.

Data set [2] deals with the molecule itself. The data set is described as above.

B1: recombinant human S100A4 (natural protein)
chain: not shown
notes: S100A4, human, recombinant (R&D Systems); No catalogue number, limits or tags are stated; also called S100A4 homodimer; metastasin; source: bought: R&D Systems
In the case of B1, the binding result in data set [1] and in data set [2] was “binds” each time.

For the origin of these results see PMC3648463, “Common Interactions between S100A4 and S100A9 Defined by a Novel Chemical Probe” (PLoS ONE, 2013).
